Assay results published in PMC5452045.

What was measured:
His‐GFP‐Mis18β (human) = His‐GFP‐Mis18β (human) (UniProt O43482); test: SEC-MALS; 100 μl of about 1 mg/ml on Superdex 200 10/300 GL; 50 mM HEPES pH 8.0, 150 mM NaCl, 1 mM TCEP; 22°C; subunit numbers from measured against calculated MW
His‐Mis18β (human) = His‐Mis18β (human) (UniProt O43482); test: as above
Chain of His‐Mis18β (human) (O43482 whole entry): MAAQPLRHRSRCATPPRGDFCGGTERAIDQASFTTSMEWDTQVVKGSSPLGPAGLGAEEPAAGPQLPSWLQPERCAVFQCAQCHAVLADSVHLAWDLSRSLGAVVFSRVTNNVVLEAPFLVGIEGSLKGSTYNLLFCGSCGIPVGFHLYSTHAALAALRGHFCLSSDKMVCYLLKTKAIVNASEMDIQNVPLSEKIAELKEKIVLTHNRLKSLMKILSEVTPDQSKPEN

Chain of His‐GFP‐Mis18α (Q9NYP9 whole entry): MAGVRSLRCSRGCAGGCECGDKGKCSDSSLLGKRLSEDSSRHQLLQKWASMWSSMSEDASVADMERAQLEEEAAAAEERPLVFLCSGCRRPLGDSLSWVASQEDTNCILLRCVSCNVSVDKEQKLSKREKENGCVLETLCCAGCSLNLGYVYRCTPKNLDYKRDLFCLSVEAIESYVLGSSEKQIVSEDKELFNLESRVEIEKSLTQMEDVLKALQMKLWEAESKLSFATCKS
Chain of His‐Mis18α (Q9NYP9 whole entry): as above
Chain of His‐GFP‐Mis18β (human) (O43482 whole entry): as the sequence (O43482 whole entry) above

stoichiometry N (His-Mis18α per His-GFP-Mis18β (4:2)) (His‐GFP‐Mis18β (human))	stoichiometry N (His-GFP-Mis18α per His-Mis18β (4:2)) (His‐Mis18β (human))	Substance
2		His‐Mis18α (from UniProt Q9NYP9 1-233) (natural protein)
	2	His‐GFP‐Mis18α (from UniProt Q9NYP9 1-233) (natural protein)
